Drawing on the supplement of paper PMC12042874, this text covers amyloid nucleation score for 141 substances.

This series can be described thus: amyloid nucleation score (Sup35N fusion, yeast selection) (log enrichment); library NNK2; higher = more nucleation; inactive = no reads after selection. In outline: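 Peptides of 20 random codons, each fused to Sup35N, were expressed in psi-negative yeast. Cells were induced with 100 μM copper sulfate for 24 hours and grown 7 days at 30°C on medium lacking adenine and uracil, and plasmid inserts before and after selection were Illumina-sequenced. Nucleation scores are DiMSum log enrichments of output over input reads, centred on the mode score of non-aggregating sequences, and sequences under 100 input reads were excluded.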

± gives the uncertainty stated by the source.

REKVVKEPRTDESFVGRGGS returned an amyloid nucleation score of 0.724 ± 0.28.
To WSPYEEPR belongs 0.298 ± 0.35.
To NGDLIRDRECRANMRFIMRV belongs -1.21 ± 0.45; to AAGRDVARAFGSLVQKLGVG, 4.88 ± 0.097.
The figure for TGSRNIWTRVVFLYCFRVHG is -0.939 ± 0.54.
For the substance QLNDWSYMVKFSAV, the amyloid nucleation score was -0.466 ± 0.64.
The substance MASAVNCESCISSGRVRFSG returned an amyloid nucleation score of 0.547 ± 0.81.
The figure for TMSPCINASIFWDYA is 3.08 ± 0.05; for NSIGPTPGGN it is 0.123 ± 1.
RAFRKAGMYSYLSG: the amyloid nucleation score was determined as 3 ± 0.056.
The figure for AILRRVKIQLPRIPPEYCGW is 0.884 ± 0.49.
To ALCIAGTLLYMANLISTLHG belongs 0.439 ± 0.36; to VKWTVNEVYGCYYCTGSVYA, 6.154 ± 0.042.
To MYWLFR belongs 0.461 ± 0.25; to YGQIITSEKNRRNYMCPFSG, -0.393 ± 1.1; to CHGNGQLK, “inactive”.
The substance SNSVCACCKCWLGLSLPYQG showed an amyloid nucleation score of 7.781 ± 0.046.
Turning to DFPQCKNTETLL, the amyloid nucleation score was 0.279 ± 0.4.
The substance LARFSDMDKMKGSVGFWALK displayed an amyloid nucleation score of -0.014 ± 0.62.
For the substance CVYPGEMLWRI, the amyloid nucleation score was -0.609 ± 0.76.
In turn, WLYYDGSFW had an amyloid nucleation score of -0.429 ± 0.76.
The figure for VRRHADRGGVLAEISNEVVQ is 0.608 ± 0.24; for PADPNCIFVIS it is -1.25 ± 0.44.
The figure for FRRLNTATRRCVTSG is -1.13 ± 0.55; for GDFLWNLWVYHNY it is 1.05 ± 0.17.
Regarding CFRDTFERSFKFLERPNIMH, the amyloid nucleation score is 1.26 ± 0.19.
For DIFITTSSFTLRCAYIIKGI, the amyloid nucleation score is -1.44 ± 0.78.
The figure for VFYCKRVAMDNTSCRNSSYL is -0.536 ± 0.31; for FIIDWSVKFGICSICLAT it is 5.448 ± 0.042.
The figure for SPMTDLVRMRGRME is 0.051 ± 0.49.
ASALGRWFTPHVSFIKYGGA displayed an amyloid nucleation score of 0.531 ± 0.49.
In turn, AMYICLRVIGSSGRSVMASK registered an amyloid nucleation score of 0.782 ± 0.16.
DLYSSV gave an amyloid nucleation score of 0.75 ± 0.41.
FKILCFSHGNNRM: the amyloid nucleation score came out at 2.07 ± 0.19.
FYFKRQNNNDQVIVTHTT had an amyloid nucleation score of -0.103 ± 0.61.
In the case of HLLHGPFMSLGG, the amyloid nucleation score is -0.973 ± 1.
The figure for IHASSVILITCFEFNFYYFA is 4.64 ± 0.057.
To LYSVGVR belongs -0.387 ± 1.1; to NQKSLFVARETSTMFPSPYV, -0.141 ± 0.38; to FYENN, -0.729 ± 0.78.
The figure for QYSTFATNRVFSKAIMHLSG is -0.445 ± 0.36.
WLPNQVKGHLSFRMCSDIRH: the amyloid nucleation score was found to be 4.334 ± 0.035.
To FAIRYTVMTLFCIRLGLLKV belongs -0.707 ± 0.27.
In the case of GDVYCNGLGISFVYFRGSRS, the amyloid nucleation score result was “inactive”.
On to CSSTAVFTRLIKADIWVRSA, for which the amyloid nucleation score was -1.35 ± 0.36.
To RNWWGLSVYNSIYWCVMSRD belongs 4.835 ± 0.043; to VTVRAQY, -0.497 ± 0.45.
ESKVAIA registered an amyloid nucleation score of -0.247 ± 0.24.
The figure for YNQTVCDFLGKRLWGDVWRS is 0.26 ± 0.36; for TFMRKCIFMFLFVIFSFYSS it is 2.03 ± 0.11; for SILLRKRQELSNFTMW it is -0.67 ± 0.76.
The figure for LGFMNCSLMHAGRVGPREHF is 2.72 ± 0.13; for IYSEWLSLVYSLGAPVTLNS it is -0.015 ± 0.46.
Consider YFIRRKIRMGGHLLTWSWWI, for which the amyloid nucleation score is -0.104 ± 0.49.
For DIGRLTLHGRVSADG, the amyloid nucleation score was 0.748 ± 0.25.
On to FSCWGFMVFRMVGDMLSMKD, for which the amyloid nucleation score is -1.58 ± 0.49.
Take AALFDLRWTHHKYFPNVKSG: the amyloid nucleation score amounted to 0.057 ± 1.1.
To NVAMSCPRGRVPR belongs 1.35 ± 0.38; to WLPYTCNFVMTVSRYSSMRG, “inactive”.
The figure for GFFVVISGRMKVYVQGKSWL is -0.325 ± 0.56; for VGVLNSIKPYLCVSAKRKCV it is 0.09 ± 0.74; for HSKGHILLTSNSNVFRLGRS it is 0.166 ± 0.62.
The entry for FYFVSSRSIDGVFFRKILNS is “inactive”; for VIGCAQWFYFADMRGMPRNQ it is 4.95 ± 0.076.
MLGVSQCVVMVVAGWA registered an amyloid nucleation score of 1.4 ± 0.16.
On to QLVLKVRLWVDGLYVLEWGW, for which the amyloid nucleation score is -0.042 ± 0.49.
With VFSSFWVYKLYEFEASSNVR, the amyloid nucleation score was -0.371 ± 0.45.
Regarding HWERLIGNLM, the amyloid nucleation score is -0.791 ± 0.36.
TLIDYYFYYCYGKSVDKAGL: the amyloid nucleation score is -0.749 ± 0.45.
VPTLCLVLDRLLDSNR registered an amyloid nucleation score of -1.39 ± 0.62.
For LCMRTFGLHHCPGYG, the amyloid nucleation score turned out to be 1.2 ± 0.37.
To LALKGLLFSHNGKLEKGQV belongs -0.17 ± 0.79; to FWQNCMALLFRFIMFKRKNV, -1.27 ± 1; to NVVQMMSVEFMPMVHVSAIL, 4.23 ± 0.063.
FQCLVFLLIGRFGVRHWT came in with an amyloid nucleation score of -0.675 ± 1.1.
As to FGRRYIMLRKYIDVIDLSIH, the amyloid nucleation score was -0.843 ± 0.76.
To PRWGRTMGCFSFRDPCRVTG belongs -0.277 ± 0.35.
As to NAHKTNLVQTLVNRLIELMD, the amyloid nucleation score came to 0.223 ± 0.29.
In the case of WFSECCSMASIGHSDTMDGS, the amyloid nucleation score is -0.567 ± 1.1.
The figure for HPHIFDLVVIYCQNGHV is 6.92 ± 0.075; for STRVWWDSWMFWLNEK it is -0.607 ± 1.
The figure for WLLVDGEH is 0.025 ± 0.45; for SYGNEFMM it is 0.363 ± 0.57.
Take GAVHGMT: the amyloid nucleation score is 0.538 ± 0.55.
To ECYDFYTWESYGLGCTSCEK belongs -0.01 ± 0.43; to LVLFCAFRVTLGFSQTLNSM, -0.003 ± 0.8.
The entry for NSHRKNHFIGGWDFTCEIYN is “inactive”.
Substance NSFMPMTWLPFRSQTEKRGS came in with an amyloid nucleation score of 3.73 ± 0.075.
To WYCMNSGASMLCGLRQARFL belongs -0.715 ± 0.76; to LLRTHTSYRL, -0.836 ± 0.55.
To HSHPCDREFLPRMHAWLDSS belongs -0.135 ± 0.33; to YDDHDFNRAGGLTVTNVWMV, 3.64 ± 0.1; to DLGGQMNYLVLMGNDMWNV, -1.01 ± 0.78.
The figure for GKYCYPL is -0.81 ± 0.32; for FLDAFFFGWDVVVRVYSSAP it is -0.153 ± 1.1; for LSFISRRDNDGYMICEYSLP it is 0.264 ± 0.65.
Consider FQDDDDPFFCVFAYFIGFFA, for which the amyloid nucleation score is -0.983 ± 1.1.
To SSVRR belongs 0.723 ± 0.22.
To TLHLWGSK belongs 1.38 ± 0.42; to GSYDLEGGLLHGLTTTSYNR, -0.235 ± 0.55; to WLSTVVL, “inactive”.
To RRLLGRLFLGTTSKLYVGDL belongs -0.147 ± 0.26; to LYSLYTYVKRYCASRVRHRY, 0.688 ± 0.81; to RICVKLKVDSGVKMHQTTAG, 7.952 ± 0.034.
With CLWVSMDGHSFWRKFNAVI, the amyloid nucleation score entry is “inactive”.
The figure for GLPVCYNRVT is -1.22 ± 1.
Regarding KMLSWP, the amyloid nucleation score is -0.412 ± 1.1.
Substance GHYLYGFSKNPASENLNAFQ came in with an amyloid nucleation score of -1.68 ± 0.75.
To VWDNIVPPQLISRRS belongs -0.813 ± 1.1.
To FSFYECLRGFFSNVDARCQV belongs 1.51 ± 0.11.
The substance RMLCLTSG showed an amyloid nucleation score of -0.59 ± 0.63.
For the substance FIPYKYAVHSS, the amyloid nucleation score was determined as 0.166 ± 0.62.
To NYVNICFNLKFQVRHST belongs 4.41 ± 0.089; to MMSSRILGVFDSSSTICVRH, -0.218 ± 0.38; to HGVLVIVRAYVHVGEWVAQL, 1.96 ± 0.4.
To GIKHVCAWDIN belongs “inactive”.
The figure for NGVLRDHWTMAQTCAGVECS is -0.403 ± 1.1; for DWKNYRMMHVEVWTACRILG it is 0.734 ± 0.81; for TCYMVWSLYC it is 3.93 ± 0.067.
Regarding QNMNLVHEIGMNRSLVFTFW, the amyloid nucleation score was -0.167 ± 0.29.
Consider ASHLWDGRSAWHTVLSLPVT, for which the amyloid nucleation score was 1.08 ± 0.18.
To VDIWVWVG belongs 0.456 ± 0.6; to HFDSYNRNSMSSRPSVGILS, -0.441 ± 1.1.
Regarding CIFYFMILFSGDIKCLNKPL, the amyloid nucleation score entry is “inactive”.
To SYVVPGFISASFYLCYCTSK belongs 3.03 ± 0.12; to CNSRCEDWPWIERTPG, 0.571 ± 0.47.
The entry for QLYRCPFCHGGALSYYIRKV is “inactive”; for LGVNYAMNVTSGSQTFMRDG it is -0.243 ± 1.
Take DDCVPQWEYK: the amyloid nucleation score is 0.695 ± 0.42.
To VSYYIRVYF belongs 5.648 ± 0.054; to MYKGLISLNCVTSGTRSG, -1.07 ± 1.1.
To CRRHVMFYTCMLE belongs 4.27 ± 0.064; to ECGVLFV, 0.827 ± 0.6; to ASIGY, 0.663 ± 0.22.
To GSAFGGRRLFEGLRGGIREW belongs 0.665 ± 0.4; to VRMWRGE, 0.083 ± 0.49; to LLRSLNLVG, 0.288 ± 0.65.
The substance FSKLLDGLTNRSESPASSVD returned an amyloid nucleation score of 1.69 ± 0.14.
As for LLHNIDVRTSRME, the amyloid nucleation score was -0.846 ± 0.44.
The entry for GCLRGIGIGGCVGCLRRILF is “inactive”; for IYSYYGCYLCRNCGLVKFSK it is 4.03 ± 0.07.
